How the values were obtained:
LNCaP cells [1] = assay: Apoptosense assay (M30 ELISA, cleaved cytokeratin 18); assay type: cell-based
Method: LNCaP were obtained from American Type Culture Collection (Rockville, Md.) and LNCaP C4-2 cells were purchased from Urocor Inc., Oklahoma City, Okla. Cells were grown in RPMI 1640 medium supplemented with 10% (LNCaP) or 5% (LNCaP C4-2) fetal bovine serum (Hyclone, Logan, Utah) and grown in the presence of 5% CO2 at 37° C. Cells were treated with 10 μM Mifepristone (Sigma, St. Louis, Mo.) for three days or with increasing concentrations (from 200 ng/ml to 600 ng/ml) of TRAIL (Biomol Research Laboratories, Inc., Plymouth Meetings, Pa.) for varying time intervals 2, 4, 6, 8, 16, 20 and 24 hours (hr). Thus, for treatment with Mifepristone, cells were treated with Mifepristone for three days and then some cells treated (without washing) with TRAIL for indicated periods. Upon completion of the experiment, cells were harvested, and total proteins, cytosol or mitochondrial fractions were isolated as described below. At least three experiments were conducted with a minimum of four plates per treatment per experiment. Two methods were used to measure induction of apoptosis by drug treatment: the MTT assay and the Apoptosense assay. The MTT assay measures mitochondrial enzyme activity and is indicative of the number of surviving cells. […] Cells were plated in petri dishes and after completion of the treatment, cells were harvested and total protein extracted as described below. […] Color was developed by adding tetramethylbenzidine solution and the optical density of the bound antibody was determined at 450 nm on a Spectra MAX 340 microplate reader (Molecular Devices, Menlo Park, Calif.). Standard solution supplied by the supplier was used for generating standard curves.

LNCaP cells [2] = conditions: cited from earlier work
PC3Neo cells = assay: Induction of apoptosis / cell survival (FIG. 1E, 6A); assay type: cell-based
Method: Prostate cancer cell lines, PC3Neo and PC3AR were provided by Dr. K. Burnstein, University of Miami School of Medicine, Miami, Fla. PC3AR cells are a clonal cell line derived by stable transfection of PC3 with a full-length human AR cDNA (Dai, J. L., et al., Steroids, 61, 531-539, 1996). PC3Neo cells were stably transfected with neomycin vector alone. Cells were grown in RPMI 1640 with 5% FBS (Hyclone, Logan, Utah), 100 units/ml penicillin, 100 μg/ml streptomycin, 0.25 μg/ml fungizone and G418 (350 μg/ml) to select for neomycin-resistant cells. In experiments using antiandrogens, cells were maintained in 5% DCC stripped serum for at least 48 hr before treatment with hydroxyflutamide (Sigma Chemical Co., St. Louis, Mo.). The medium and all the drugs were replaced every two days. Cells were treated with 200 ng/ml, 400 ng/ml or 600 ng/ml of TRAIL (Biomol Research Laboratories, Inc, Plymouth Meeting, Pa.) for 2, 4, 6, 8, 16 and 20 hr. Cells were treated with 5 μM hydroxyflutamide for 5 days before the commencement of treatment with 400 ng/ml TRAIL.
Two methods were used to measure induction of apoptosis by drug treatment: the MTT assay and the Apoptosense assay. The MTT assay measures mitochondrial enzyme activity and is indicative of the number of surviving cells. The Apoptosense assay is an ELISA, which utilizes M30 antibody to recognize the C-terminal domain (amino acids 387-396) of cytokeratin 18 that is exposed in apoptotic cells after cleavage by caspases.
Cells were seeded in 96-well plates (6000 cells/well) and treatment was started 24 hr after seeding the cells. After completion of the treatment, cells were incubated at 37° C. with the MTT reagent for 3 hr and processed according to manufacturers instructions (Promega Corporation, Madison, Wis.). Color development was measured at 490 nm on a Spectra MAX 340 microplate reader (Molecular Devices, Menlo Park, Calif.).
To examine the role of NFκB in altered response to TRAIL, its function was blocked by over expressing mutated IκB protein (Kanegae, Y., et al., Nature 392, 611-614, 1998). […]

LNCaP C4-2 cells = assay: Western blotting of death receptors, caspases, Bid, cytochrome c, Akt; assay type: cell-based; conditions: 15 min, FIG. 8

Molecule | M30 activity (in words) (LNCaP cells [1]) | induction of tBid (Sridhar et al., 2001) (LNCaP cells [2]) | apoptotic response at 200 ng/ml (PC3Neo cells; 200 ng/ml TRAIL) | death of cells (apoptosis) (PC3Neo cells; 400 ng/ml TRAIL, by 20 hr, FIG. 1E) [%] | apoptosis at higher dose (PC3Neo cells; 600 ng/ml TRAIL) | phosphorylated Akt (LNCaP C4-2 cells)
CC#C[C@]1(O)CC[C@H]2[C@@H]3CCC4=CC(=O)CCC4=C3[C@@H](c3ccc(N(C)C)cc3)C[C@@]21C [Mifepristone] | lower M30 activity | weakly induced | – | – | – | –
Tumor necrosis factor α—Related Apoptosis Inducing Ligand (protein, UniProt P50591 1-281, looked up, 281 amino acid type II transmembrane protein of the tumor necrosis factor α family; purchased from Biomol) Tumor necrosis factor ligand …: MAMMEVQGGPSLGQTCVLIVIFTVLLQSLCVAVTYVYFTNELKQMQDKYSKSGIACFLKEDDSYWDPNDEESMNSPCWQVKWQLRQLVRKMILRTSEETISTVQEKQQNISPLVRERGPQRVAAHITGTRGRSNTLSSPNSKNEKALGRKINSWESSRSGHSFLSNLHLRNGELVIHEKGFYYIYSQTYFRFQEEIKENTKNDKQMVQYIYKYTSYPDPILLMKSARNSCWSKDAEYGLYSIYQGGIFELKENDRIFVSVTNEHLIDMDHEASFFGAFLVG | – | – | lower response | ~18 | did not significantly increase apoptosis | slightly decreased phosphorylated Akt

— patent publication US20020115613A1, “Treatment of prostate cancer” (priority 2001, published 2002)
